Source: patent US20150344565A1
Where “and” joins values, the source holds several entries; their conditions need not be identical. Equal values may be shown once.

Assays:
[1] = target: Non-glycosylated recombinant human GM-CSF expressed in E. coli (human) (UniProt P04141); assay: cell-based or functional assay
[2] = target: Glycosylated recombinant human GM-CSF expressed from human 293 cells (human) (UniProt P04141); assay: ELISA on GM-CSF-coated wells, glycosylated GM-CSF, exp 1
[3] = target: Non-glycosylated recombinant human GM-CSF expressed in E. coli (human) (UniProt P04141); assay: ELISA on GM-CSF-coated wells, non-glycosylated GM-CSF, exp 1
[4] = target: Non-glycosylated recombinant human GM-CSF expressed in E. coli (human) (UniProt P04141); assay: ELISA on GM-CSF-coated wells, non-glycosylated GM-CSF, exp 2
[5] = target: Glycosylated recombinant human GM-CSF expressed from human 293 cells (human) (UniProt P04141); assay: SPR (Biacore 3000) at 37 °C, antibody captured on anti-human F(ab')2, GM-CSF as analyte, 1:1 global fit

IC50 for inhibition of GM-CSF induced IL-8 expression (U937 cells), experiment C [1]: 2.2 nM and 343 ng/ml | EC50 [2]: 0.387 nM | EC50 [3]: 0.4 nM | EC50 [4]: 0.433 nM | Kd [5]: 0.0305 nM | koff [5]: 2.2e-05 s⁻¹ | kon [5]: 720000 M⁻¹ s⁻¹
Substance: Ab2, chimeric IgG1k antibody having variable regions from the mouse antibody LMM102
